B1: catalytic domain of PhaC from Chromobacterium sp. USM2 (residues 175-567) (domain or fragment)
chain: not shown
notes: two additional vector-derived residues (Gly-Pro) identified at the N-terminus after PreScission cleavage; Class I PHA synthase PhaC, Chromobacterium sp; USM2, C-terminal catalytic (CAT) domain, residues 175-567 (1179 nucleotides, calc. 43.8 kDa); Cloned into the His-fusion vector pET47b(+); the His-tag was removed with PreScission protease; also called PhaCCs-CAT; mol A; source: E. coli Rosetta 2 …
B2: PHA synthase PhaC from Chromobacterium sp. USM2, full-length (enzyme)
chain: not shown
notes: two additional vector-derived residues (Gly-Pro) identified at the N-terminus after PreScission cleavage; Class I PHA synthase PhaC, Chromobacterium sp; USM2; full-length gene of 1704 nucleotides, calc; 63.4 kDa; Cloned into the His-fusion vector pET47b(+); the His-tag was removed with PreScission protease; also called PhaCCs; full-length PhaCCs; source: E. coli Rosetta 2 (DE3), purified (Ni-NTA, …)

How the values were obtained:
[1] = target: the molecule itself; experiment: AUC; sedimentation velocity, 20 °C, 20 µM PhaCCs-CAT without DL-3HB-CoA, 10 mM Tris-HCl (pH 8.0), 100 mM NaCl, 3 mM β-ME; monomer to dimer
[2] = target: the molecule itself; experiment: AUC; sedimentation velocity, 20 °C, 20,000 rpm, 5 µM full-length PhaCCs with 50 µM DL-3HB-CoA (10-fold molar ratio), 10 mM Tris-HCl (pH 8.0), 100 mM NaCl, 3 mM β-ME
[3] = target: the molecule itself; experiment: AUC; sedimentation velocity, 20 °C, 20,000 rpm, 5 µM full-length PhaCCs without substrate, 10 mM Tris-HCl (pH 8.0), 100 mM NaCl, 3 mM β-ME; monomer to dimer

Protein | stoichiometry N [1] | stoichiometry N [2] | stoichiometry N [3]
B1 | 2 |  | 
B2 |  | ~4 | 2
